Test results taken from article PMC2756588.

T1: Abp1, P15891
T1 sequence (P15891 535-592, looked up): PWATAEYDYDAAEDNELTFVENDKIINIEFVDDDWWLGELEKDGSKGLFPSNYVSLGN

T2: Bbc1, P47068
T2 sequence (P47068 1-78, looked up): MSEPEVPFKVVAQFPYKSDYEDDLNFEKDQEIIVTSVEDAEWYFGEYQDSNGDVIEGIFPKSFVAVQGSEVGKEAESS

T3: Boi1, P38041
T3 sequence (P38041 1-86, looked up): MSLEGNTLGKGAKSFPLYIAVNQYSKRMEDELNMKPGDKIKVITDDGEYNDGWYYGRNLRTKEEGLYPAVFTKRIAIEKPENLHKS

T4: Boi2, P39969
T4 sequence (P39969 32-116, looked up): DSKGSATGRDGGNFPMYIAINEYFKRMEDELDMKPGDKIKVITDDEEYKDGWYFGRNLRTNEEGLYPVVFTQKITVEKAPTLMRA

T5: Bud14, P27637
T5 sequence (P27637 247-328, looked up): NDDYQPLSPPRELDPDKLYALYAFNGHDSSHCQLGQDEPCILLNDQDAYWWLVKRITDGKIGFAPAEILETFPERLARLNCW

T6: Bzz1-1, P38822
T6 sequence (P38822 478-572, looked up): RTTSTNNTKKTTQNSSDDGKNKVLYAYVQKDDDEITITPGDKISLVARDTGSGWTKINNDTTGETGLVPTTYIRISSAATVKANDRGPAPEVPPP

T7: Bzz1-2, P38822
T7 sequence (P38822 568-633, looked up): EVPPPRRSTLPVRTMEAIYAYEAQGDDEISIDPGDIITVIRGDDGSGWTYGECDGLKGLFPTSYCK

T8: Cdc25, P04821
T8 sequence (P04821 50-136, looked up): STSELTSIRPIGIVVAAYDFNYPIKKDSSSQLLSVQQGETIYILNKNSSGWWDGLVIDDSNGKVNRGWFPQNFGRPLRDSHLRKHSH

T9: Cyk3, Q07533
T9 sequence (Q07533 1-83, looked up): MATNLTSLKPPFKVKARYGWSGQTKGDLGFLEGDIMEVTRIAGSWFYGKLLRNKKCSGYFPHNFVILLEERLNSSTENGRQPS

T10: Fus1, P11710
T10 sequence (P11710 432-512, looked up): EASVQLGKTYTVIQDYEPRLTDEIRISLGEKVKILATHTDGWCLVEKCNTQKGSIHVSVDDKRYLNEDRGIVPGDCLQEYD

T11: Hof1, Q05080
T11 sequence (Q05080 590-669, looked up): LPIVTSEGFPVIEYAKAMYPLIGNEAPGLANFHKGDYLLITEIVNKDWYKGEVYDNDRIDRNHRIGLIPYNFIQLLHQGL

T12: Hse1, P38753
T12 sequence (P38753 208-285, looked up): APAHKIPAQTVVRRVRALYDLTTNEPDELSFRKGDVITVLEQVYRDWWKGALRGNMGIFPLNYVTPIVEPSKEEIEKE

T13: Lsb1, P53281
T13 sequence (P53281 45-122, looked up): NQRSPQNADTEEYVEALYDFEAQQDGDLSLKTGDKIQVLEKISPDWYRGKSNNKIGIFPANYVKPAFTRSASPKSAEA

T14: Lsb3, P43603
T14 sequence (P43603 385-451, looked up): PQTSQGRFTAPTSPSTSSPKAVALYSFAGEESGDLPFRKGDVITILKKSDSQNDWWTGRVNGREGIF

T15: Lsb4, P32793
T15 sequence (P32793 402-468, looked up): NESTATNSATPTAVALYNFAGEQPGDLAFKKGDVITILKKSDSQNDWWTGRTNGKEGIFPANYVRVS

T16: Myo5, Q04439
T16 sequence (Q04439 1072-1160, looked up): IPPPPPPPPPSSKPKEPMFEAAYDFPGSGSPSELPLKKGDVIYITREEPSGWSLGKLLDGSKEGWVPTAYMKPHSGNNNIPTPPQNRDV

T17: Nbp2, Q12163
T17 sequence (Q12163 103-180, looked up): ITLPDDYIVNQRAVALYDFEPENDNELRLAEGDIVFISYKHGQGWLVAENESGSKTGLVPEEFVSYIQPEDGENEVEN

T18: Pex13, P80667
T18 sequence (P80667 295-386, looked up): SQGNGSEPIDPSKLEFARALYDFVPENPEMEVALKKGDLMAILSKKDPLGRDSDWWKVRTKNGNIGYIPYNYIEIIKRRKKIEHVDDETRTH

T19: Pin3, Q06449
T19 sequence (Q06449 53-122, looked up): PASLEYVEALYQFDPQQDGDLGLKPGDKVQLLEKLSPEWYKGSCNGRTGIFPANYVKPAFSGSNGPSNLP

T20: Sla1-2, P32790
T20 sequence (P32790 60-140, looked up): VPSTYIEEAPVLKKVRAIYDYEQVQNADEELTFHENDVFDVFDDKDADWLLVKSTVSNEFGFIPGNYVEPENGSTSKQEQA

T21: Sla1-3, P32790
T21 sequence (P32790 344-424, looked up): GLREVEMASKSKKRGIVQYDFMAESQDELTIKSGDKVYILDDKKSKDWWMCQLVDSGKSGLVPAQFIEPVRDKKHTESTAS


Legend:
Experiment in all cases: SPOT array
Abp1, P15891 = target: T1, Abp1, P15891; conditions: median of control spots 935
Bbc1, P47068 = target: T2, Bbc1, P47068; conditions: median of control spots 796
Bem1-1, P29366 = conditions: median of control spots 4282
Bem1-2, P29366 = conditions: median of control spots 4347
Boi1, P38041 = target: T3, Boi1, P38041; conditions: median of control spots 1162
Boi2, P39969 = target: T4, Boi2, P39969; conditions: median of control spots 1161
Bud14, P27637 = target: T5, Bud14, P27637; conditions: median of control spots 956
Bzz1-1, P38822 = target: T6, Bzz1-1, P38822; conditions: median of control spots 4446
Bzz1-2, P38822 = target: T7, Bzz1-2, P38822; conditions: median of control spots 4538
Cdc25, P04821 = target: T8, Cdc25, P04821; conditions: median of control spots 969
Cyk3, Q07533 = target: T9, Cyk3, Q07533; conditions: median of control spots 1451
Fus1, P11710 = target: T10, Fus1, P11710; conditions: median of control spots 1200
GST = conditions: median of control spots 978
Hof1, Q05080 = target: T11, Hof1, Q05080; conditions: median of control spots 4086
Hse1, P38753 = target: T12, Hse1, P38753; conditions: median of control spots 1727
Lsb1, P53281 = target: T13, Lsb1, P53281; conditions: median of control spots 388
Lsb3, P43603 = target: T14, Lsb3, P43603; conditions: median of control spots 406
Lsb4, P32793 = target: T15, Lsb4, P32793; conditions: median of control spots 397
Myo3, P36006 = conditions: median of control spots 468
Myo5, Q04439 = target: T16, Myo5, Q04439; conditions: median of control spots 471
Nbp2, Q12163 = target: T17, Nbp2, Q12163; conditions: median of control spots 357
Pex13, P80667 = target: T18, Pex13, P80667; conditions: median of control spots 1341
Pin3, Q06449 = target: T19, Pin3, Q06449; conditions: median of control spots 2171
Rvs167, P39743 = conditions: median of control spots 2707
Sho1, P40073 = conditions: median of control spots 1148
Sla1-2, P32790 = target: T20, Sla1-2, P32790; conditions: median of control spots 712
Sla1-3, P32790 = target: T21, Sla1-3, P32790; conditions: median of control spots 5475

Bem1-2, P29366, sequence (P29366 139-227): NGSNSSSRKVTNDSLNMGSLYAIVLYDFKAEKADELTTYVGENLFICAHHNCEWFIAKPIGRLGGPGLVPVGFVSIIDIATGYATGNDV
Rvs167, P39743, sequence (P39743 419-482): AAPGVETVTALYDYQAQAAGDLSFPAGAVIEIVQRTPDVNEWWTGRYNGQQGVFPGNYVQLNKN
Bem1-1, P29366, sequence (P29366 55-141): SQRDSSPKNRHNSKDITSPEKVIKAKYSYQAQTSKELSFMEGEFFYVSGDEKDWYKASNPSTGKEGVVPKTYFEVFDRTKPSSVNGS
Sho1, P40073, sequence (P40073 287-367): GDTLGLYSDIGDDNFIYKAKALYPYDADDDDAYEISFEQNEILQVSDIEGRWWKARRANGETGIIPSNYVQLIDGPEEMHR

Binder	SPOT intensity (Abp1, P15891)	SPOT intensity (Bbc1, P47068)	SPOT intensity (Bem1-1, P29366)	SPOT intensity (Bem1-2, P29366)	SPOT intensity (Boi1, P38041)	SPOT intensity (Boi2, P39969)	SPOT intensity (Bud14, P27637)	SPOT intensity (Bzz1-1, P38822)	SPOT intensity (Bzz1-2, P38822)	SPOT intensity (Cdc25, P04821)	SPOT intensity (Cyk3, Q07533)	SPOT intensity (Fus1, P11710)	SPOT intensity (GST)	SPOT intensity (Hof1, Q05080)	SPOT intensity (Hse1, P38753)	SPOT intensity (Lsb1, P53281)	SPOT intensity (Lsb3, P43603)	SPOT intensity (Lsb4, P32793)	SPOT intensity (Myo3, P36006)	SPOT intensity (Myo5, Q04439)	also measured
VQKRKLPLPGSIASA	157	23	0	1	0	0	0	0	0	18	0	0	0	0	0	0	1	13	0	0	SPOT intensity (Nbp2, Q12163): 1; SPOT intensity (Pex13, P80667): 0; SPOT intensity (Pin3, Q06449): 0; SPOT intensity (Rvs167, P39743): 0; SPOT intensity (Sho1, P40073): 11; SPOT intensity (Sla1-2, P32790): 0; SPOT intensity (Sla1-3, P32790): 4
STKKPRPPVKSKPKH	397	3	0	2	0	1	3	1	5	0	3	1	2	0	1	0	0	0	0	0	SPOT intensity (Nbp2, Q12163): 0; SPOT intensity (Pex13, P80667): 0; SPOT intensity (Pin3, Q06449): 0; SPOT intensity (Rvs167, P39743): 12; SPOT intensity (Sho1, P40073): 12; SPOT intensity (Sla1-2, P32790): 0; SPOT intensity (Sla1-3, P32790): 5
TEVPIPRRPPPPQAA	0	3	3	0	0	0	0	12	0	0	0	0	3	0	0	0	46	108	367	141	SPOT intensity (Nbp2, Q12163): 0; SPOT intensity (Pex13, P80667): 0; SPOT intensity (Pin3, Q06449): 0; SPOT intensity (Rvs167, P39743): 0; SPOT intensity (Sho1, P40073): 0; SPOT intensity (Sla1-2, P32790): 0; SPOT intensity (Sla1-3, P32790): 0
APKHAPPPVPNETDN	0	0	0	0	0	0	0	0	0	0	0	0	0	0	3	0	0	0	497	239	SPOT intensity (Nbp2, Q12163): 0; SPOT intensity (Pex13, P80667): 0; SPOT intensity (Pin3, Q06449): 0; SPOT intensity (Rvs167, P39743): 0; SPOT intensity (Sho1, P40073): 0; SPOT intensity (Sla1-2, P32790): 0; SPOT intensity (Sla1-3, P32790): 0

Further lines, with some results ahead:

SPOT intensity (Abp1, P15891)	SPOT intensity (Bbc1, P47068)	SPOT intensity (Bem1-1, P29366)	SPOT intensity (Bem1-2, P29366)	SPOT intensity (Boi1, P38041)	SPOT intensity (Boi2, P39969)	SPOT intensity (Bud14, P27637)	SPOT intensity (Bzz1-1, P38822)	SPOT intensity (Bzz1-2, P38822)	SPOT intensity (Cdc25, P04821)	SPOT intensity (Cyk3, Q07533)	SPOT intensity (Fus1, P11710)	SPOT intensity (GST)	SPOT intensity (Hof1, Q05080)	SPOT intensity (Hse1, P38753)	SPOT intensity (Lsb1, P53281)	SPOT intensity (Lsb3, P43603)	SPOT intensity (Lsb4, P32793)	SPOT intensity (Myo3, P36006)	SPOT intensity (Myo5, Q04439)	Binder	also measured
175	13	0	0	7	0	22	0	5	35	3	0	1	1	8	5	155	225	0	0	FPGKKSPRLPHRNKK	SPOT intensity (Nbp2, Q12163): 0; SPOT intensity (Pex13, P80667): 16; SPOT intensity (Pin3, Q06449): 0; SPOT intensity (Rvs167, P39743): 314; SPOT intensity (Sho1, P40073): 84; SPOT intensity (Sla1-2, P32790): 0; SPOT intensity (Sla1-3, P32790): 12
0	0	0	84	0	0	0	0	0	0	0	0	0	0	13	0	0	0	557	376	AAAPKHAPPPVPNET	SPOT intensity (Nbp2, Q12163): 0; SPOT intensity (Pex13, P80667): 0; SPOT intensity (Pin3, Q06449): 0; SPOT intensity (Rvs167, P39743): 0; SPOT intensity (Sho1, P40073): 0; SPOT intensity (Sla1-2, P32790): 0; SPOT intensity (Sla1-3, P32790): 0
